Like-named read-outs stand apart in the source and are kept apart here.

In series [1] the test system is murine colon carcinoma, Colo 26. Put plainly: IL-18 and 5-FU combination therapy in syngeneic model of murine colon cancer Colo26. Type of series: in vivo, BALB/c mice. The settings on record: monotherapy with 5-FU alone or mIL-18 alone. On the procedure:
This study aimed to evaluate the efficacy of mIL-18 (SEQ ID NO:2) combination therapy with 5-fluorouracil (5-FU), as compared to monotherapy with 5-FU, or mIL-18 (SEQ ID NO:2) alone. Our study was performed in a well established syngeneic subcutaneous model of murine colon carcinoma, Colo 26, in BALB/c mice. The dosing with mIL-18 (SEQ ID NO:2) was performed daily with 10 μg/mouse s.c. on days 10-30 after tumor inoculation. The dosing with 5-FU was performed i.p. twice a week in the ascending dose: 27, 45 and 74 μg/mouse.
The data comparing tumor volumes in different treatment groups were evaluated at a selected representative time-point, and were expressed as mean+/−SD (FIG. 21), and as median+/−range (FIG. 22). The data were first checked for normal distribution (Gaussian approximation), and standard deviation values were compared to make sure that there is an equal variance. […] Therefore, a non-parametric test (Kruskal-Wallis analysis and Dunn's comparison test) was used for the statistical evaluation. […] FIG. 24 (median+/−SD) and FIG. 25 (mean+/−SD) show the effect of IL-18 and 5-FU combination therapy in same Colo26 syngeneic colon tumor model. […]
Survival of mice bearing Colo26 in different treatment groups was plotted in a Kaplan-Meyer survival curve analysis, and evaluated by Logrank test, and is shown in FIG. 26. […]

The subject of series [2] is NK cells. The series can be described thus: NK cytotoxicity assay in the EL-4 T-cell lymphoma model. As to conditions: FIG. 12; 21 hours post-treatment.
Series [3] relates to EL-4 murine T-lymphoma cells. The series can be described thus: IL-18 combination with doxorubicin in EL-4 T cell lymphoma (survival, increase in lifespan). Type of series: in vivo, C57/BL/6 mice. The procedure:
Studies were performed in female C57/BL/6 mice. As a general protocol, C57/BL mice were injected I.P. with 0.2 cc of stock EL-4 cells. EL-4 murine T-lymphoma cells were expanded in RPMI w/10% FCS. All animals were randomized to six or seven mice per study group with food and water ad libitum.
EL-4 cells were harvested on day 0, counted and implanted I.P. with 5×10^5 EL-4 lymphoma cells. Animals were randomized to treatment groups of 6/7 animals on Day 3. Doxorubicin was administered IV on Days 3 &10, pos-implantation. mIL-18 (SEQ ID NO:2) was administered S.C. on Days 3-16. The animals were observed daily for toxicity and mortality.
All animals tolerated dosing schedule and levels well by gross observation. On day 16, all dosing was terminated, and median vehicle death occurred on day 17.5. All vehicle mice expired between days 16-18 post-implantation. Increase in lifespan was calculated by study group/vehicle group—1×100%. For mIL-18 (SEQ ID NO:2) combination therapy with doxorubicin in EL-4 T cell lymphoma, the data were analyzed with respect to median survival time and increase in lifespan.

The conditions of series [4]: cited from earlier work.
Series [5] relates to NK cells.
The next series concerns MOPC-315 plasmacytoma. Put plainly: IL-18 monotherapy in advanced MOPC-315 plasmacytoma model. Type of series: in vivo, mice.

Take `O=c1[nH]cc(F)c(=O)[nH]1` [5-FU, 5-fluorouracil, reference compound]: in series [1], the “therapeutic effect on tumor growth compared to control” value is “did not show a therapeutic effect better than a control”.
Take `COc1cccc2c1C(=O)c1c(O)c3c(c(O)c1C2=O)C[C@@](O)(C(=O)CO)C[C@@H]3O[C@H]1C[C@H](N)[C@H](O)[C@H](C)O1` [doxorubicin, Doxorubicin, reference compound]: the NK cytotoxicity result in the series with NK cells [2] is listed as “impaired”. Also, the increase in lifespan result in series [3] (doxorubicin monotherapy, 12 mg/kg, IV days 3 & 10) is reported as “minimal increase in lifespan”.
Take “human IL-18: recombinant mature form of human interleukin-18, expressed in a non-pathogenic strain of Escherichia coli”: the “toxicity at the highest dose tested” value in series [4] (2000 μg/kg administered weekly for up to 24 weeks, patients with renal cell carcinoma and metastatic melanoma) is “no significant toxicity”. In series [4] (doses up to 2000 μg/kg weekly for up to 24 weeks), the maximum tolerated dose result is on record as “not identified”.

B1: mIL-18: Recombinant murine IL-18 (SEQ ID NO:2), used in the pre-clinical studies (protein)
chain: NFGRLHCTTAVIRNINDQVLFVDKRQPVFEDMTDIDQSASEPQTRLIIYMYKDSEVRGLAVTLSVKDSKMSTLSCKNKIISFEEMDPPENIDDIQSDLIFFQKRVPGHNKMEFESSLYEGHFLACQKEDDAFKLILKKKDENGDKSVMFTLTNLHQS
modifications: Murine
In the case of B1, the increase in lifespan result in series [3] (IL-18 monotherapy at 1, 5 and 25 ug/dose, S.C. days 3-16) is on record as “did not show any increase in lifespan”. The NK cytotoxicity entry in the series with NK cells [5] is recorded as “robust NK cytotoxicity”. For the same molecule, the “therapeutic effect on tumor growth compared to control” value in series [1] is recorded as “did not show a therapeutic effect better than a control”. Besides, in the series on MOPC-315 plasmacytoma (advanced tumor, 5 mg/Kg daily for approximately 30 days), the anti-tumor effect entry is “reproducible tumor regressions and cure”. The “outcome of rechallenge with parental tumor” value in the series with MOPC-315 plasmacytoma (after cure by murine IL-18) is “tumor rejection”. For the same molecule, the “anti-tumor effect in SCID mice” value in the series on MOPC-315 plasmacytoma (severe combined immunodeficient mice bearing advanced MOPC-315 tumors, similar schedule) was “failed to regress”.

These data come from patent US20100196310A1, “METHODS OF TREATING CANCER BY ADMINISTERING HUMAN IL-18 COMBINATIONS” (SMITHKLINE BEECHAM CORPORATION, priority 2007, published 2010).
